Legend:
[1] = molecular target: T1, P19 (alanine substituted, FIG. 3 panel E); assay: ELISA: 500 ng peptide coated per well, 29E4 at 40 ng/mL, HRP goat anti-rabbit Ig 1:16,000, ABS 450 nm, duplicates [CONT. 2]
T1 construct: also called Q229 to alanine
Excerpt: (§1) HRP Goat anti-rabbit Ig was applied at 1:16,000 dilution in all reactions.
(§2) Peptides were synthesized to achieve ≥70% HPLC purity by a commercial vendor (GenScript Biotech, Piscataway, NJ). Peptides were reconstituted in either water, or with addition of acetonitrile, methanol, 10% acetic acid, or DMSO, depending on the overall charge of each peptide. Key residues required for mAb binding were probed by ELISA using overlapping peptides, truncated peptides and alanine substituted peptides. Reactions were performed in duplicate using NUNC 96-well flatbottom MaxiSorp plates (Thermo Scientific). After coating each well with 500 ng of peptide in 100 μL coating buffer (50 mM NaHCO₃, pH 9.6), the plates were sealed and incubated at 4° C. overnight. […] Plates were then washed once with wash buffer, incubated with 100 μL mAb 29E4 (serially diluted from 1 mg/mL) for 1 hour at 37° C. Plates were further washed four times with wash buffer, and then incubated at 37° C. with 100 μL of a horse radish peroxidase (HRP)-conjugated secondary antibody against the primary antibody, diluted 1:16,000 according to manufacturer's protocols (KPL, Inc., Gaithersburg, MD). After washing four times with wash buffer, 100 μL of K-Blue Aqueous TMB substrate (Neogen, Lexington, KY) was added to the plates and incubated uncovered for 30 minutes at room temperature. To stop the reaction, 100 μL of 2 N Sulphuric acid was added to each well and absorbance were measured immediately at 450 nm. All dilutions of reagents were performed in ELISA diluent (20% NGS in 1×PBS with 0.1% Triton-X 100).

[2] = molecular target: T2, alanine substituted peptide with P223 replaced by alanine (P13 of FIG. 3 panel E) (human); assay: as above
T2 construct: The text names only the residue P223
Excerpt: as §1, §2

[3] = molecular target: T3, P6 (alanine substituted, FIG. 3 panel E); assay: as above
T3 construct: not the overlapping peptide P6 of panel A; also called S216 to alanine
Excerpt: as §1, §2

[4] = molecular target: T4, alanine substituted peptide P12 (F222 to alanine) (human); assay: as above
T4 construct: The entry already carries the substitution
Excerpt: as §1, §2

[5] = molecular target: T5, P27 (alanine substituted, FIG. 3 panel E); assay: as above
T5 construct: also called E237 to alanine
Excerpt: as §1, §2

[6] = molecular target: T6, P18 (alanine substituted, FIG. 3 panel E); assay: as above
T6 construct: also called K228 to alanine
Excerpt: as §1, §2

[7] = molecular target: T7, P26 (alanine substituted, FIG. 3 panel E); assay: as above
T7 construct: also called Y236 to alanine
Excerpt: as §1, §2

[8] = molecular target: T8, P16 (alanine substituted, FIG. 3 panel E); assay: as above
T8 construct: also called G226 to alanine
Excerpt: as §1, §2

[9] = molecular target: T9, ETV1 immunogenic peptide P1 (human); assay: SPR (Biacore T200), antibody amine-coupled on CM5 chip, peptide as analyte, 1:1 binding fit
T9 construct: 27 amino acid peptide, ETV1 residues 212-238; also called immunogen peptide; ETV1 P1 peptide
Protocol: Affinity measurements using SPRi was performed using a Biacore T200 instrument (Cytiva, Marlborough, MA) by Creative Biolabs (Shirley, NY, USA). The ETV1 (29E4) antibody was directly immobilized onto a CM5 sensor chip surface using an amine coupling kit (Cytiva). Before immobilization, the CM5 sensor surface was activated using a mixture of 400 mM 1-ethyl-3-(3-dimethylaminopropyl) carbodiimide (EDC) and 100 mM N-hydroxysuccinimide (NHS). The ETV1 antibody was diluted to 40 μg/ml in immobilization buffer (10 mM NaAc, pH 4.5) and injected into Fc4 sample channel at a flow rate of 10 μL/min. The amount of antibody (ligand) immobilized was about 5,000 RU. The chip was deactivated by 1 M Ethanolamine hydrochloride-NaOH (GE Healthcare Life Sciences, Piscataway, NJ) at a flow rate of 10 μL/min for 420 seconds. The reference Fc3 channel underwent similar procedures but without injecting the ligand. […] Different concentrations of the […] were then injected into the cell over both channels at a flow rate of 30 μL/min, with a contact time of 90 seconds, followed by a dissociation time of 210 seconds. The surface was regenerated with 10 mM Glycine-HCl, pH 1.5 after each injection to prepare for the injection of the next antibody dilution sample. Data analysis was performed on the Biacore T200 computer and with the Biacore T200 evaluation software, using the steady-state affinity model or 1:1 binding model.
The binding of the 29E4 mAb to its epitope sequence was further analyzed by using SPRi. After immobilizing the ETV1 mAb onto a matrix of dextran on the surface of a Sensor Chip to a level of 5000 response units (RU) with standard amine coupling (FIG. 4, panel A), different concentrations of the serially diluted peptide were then injected as an analyte into the cell over both channels for 300 seconds (contact time of 90 seconds, followed by a dissociation time of 210 seconds) to give a response of about 180 RU. The different binding affinity of each antibody dilution is depicted in the overlay plot of SPR sensorgrams and fitting curves (FIG. 4, panel B).

T9 sequence (peptide, as listed by the source): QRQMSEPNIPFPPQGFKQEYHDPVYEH
T6 sequence (peptide, as listed by the source): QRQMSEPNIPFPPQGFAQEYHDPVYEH
T8 sequence (peptide, as listed by the source): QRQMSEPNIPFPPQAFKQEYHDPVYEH
T4 sequence (peptide, as listed by the source): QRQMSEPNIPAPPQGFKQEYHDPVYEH
T5 sequence (peptide, as listed by the source): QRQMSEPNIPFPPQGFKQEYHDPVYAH
T3 sequence (peptide, as listed by the source): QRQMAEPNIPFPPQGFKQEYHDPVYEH
T2 sequence (peptide, as listed by the source): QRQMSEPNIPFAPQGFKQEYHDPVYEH
T1 sequence (peptide, as listed by the source): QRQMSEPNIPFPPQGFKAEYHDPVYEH
T7 sequence (peptide, as listed by the source): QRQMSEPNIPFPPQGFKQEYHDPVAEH

binding result [1]: binds | binding result [2]: binds | binding result [3]: binds | binding result [4]: no binding (tested: 40 ng/mL) | binding result [5]: binds | binding result [6]: binds | binding result [7]: binds | binding result [8]: binds | Kd [9]: 0.479 nM | koff [9]: 0.000149 s⁻¹ | kon [9]: 311000 M⁻¹ s⁻¹
B1: ETV1 rabbit monoclonal antibody (29E4) (antibody, V domains shown)
VH: QELEESGGDLVKPGASLTLTCTASGFFFSAENHICWVRQAPGKGLEWIGCVYIGSYVGGSGDPYYASWAKGRFTISKTSSTTVTLQMSSLTAADTATYFCARDLGSLWGPGTLVTVSS
VL: DVVMTQTASSVSAAVGGTVTIACQSSQSVYDNNNLAWFQQKPGQPPKRLIYSASTLASGVSSRFKGSGYGTQFTLTISDVQCDDAATYYCVGAFSGYIFVFGGGTEVVVK
notes: constant regions are not; also called 29E4 mAb; ETV1 29E4 mAb
